From article PMC3783020 (Cellular microbiology, 2012) come the findings set out here.

For assay [1], the target named is MBP-CHMP4B_(ΔC-Alix) (human). The experiment in a line: SPR.
Assay [2] addresses CHMP2B-His6 (full length) (human, UniProt Q9UQN3 1-213). Nature of the assay: SPR.
For assay [3], the target named is T1, CHMP3 full length (residues 1-222) (human, UniProt Q9Y3E7 1-222).
T1 sequence (looked up): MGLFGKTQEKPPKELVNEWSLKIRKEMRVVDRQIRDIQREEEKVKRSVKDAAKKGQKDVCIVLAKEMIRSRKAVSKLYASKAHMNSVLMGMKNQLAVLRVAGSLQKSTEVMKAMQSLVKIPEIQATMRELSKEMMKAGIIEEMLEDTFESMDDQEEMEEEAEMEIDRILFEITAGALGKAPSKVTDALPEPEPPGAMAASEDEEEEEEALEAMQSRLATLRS
The experiment in a line: SPR. (In SPR one partner is held on a chip, and binding of the other changes the refractive index at the surface.)

Assay [4] concerns the target T1, CHMP3 full length (residues 1-222). The experiment in a line: cryo-EM structure.
Assay [5] addresses MBP-CHMP4B_(ΔC-Alix) (human). The experiment in a line: SPR. The source holds these as a separate data set.

Sequence of CHMP2B-His6 (full length) (human, UniProt Q9UQN3 1-213) (Q9UQN3 whole entry, the tested form may be a part): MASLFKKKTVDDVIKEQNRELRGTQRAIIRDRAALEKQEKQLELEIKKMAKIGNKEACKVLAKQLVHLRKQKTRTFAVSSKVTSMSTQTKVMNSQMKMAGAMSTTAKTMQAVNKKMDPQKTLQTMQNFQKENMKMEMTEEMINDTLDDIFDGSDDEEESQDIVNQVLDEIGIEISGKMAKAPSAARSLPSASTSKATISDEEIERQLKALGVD

Take “CHMP2B-His6 (full length) (from UniProt Q9UQN3 1-213) (natural protein)”: the Kd in assay [1] worked out at 560 nM.

B1: CHMP3ΔC (residues 9-183) (domain or fragment, human, UniProt Q9Y3E7 9-183, looked up)
chain: EKPPKELVNEWSLKIRKEMRVVDRQIRDIQREEEKVKRSVKDAAKKGQKDVCIVLAKEMIRSRKAVSKLYASKAHMNSVLMGMKNQLAVLRVAGSLQKSTEVMKAMQSLVKIPEIQATMRELSKEMMKAGIIEEMLEDTFESMDDQEEMEEEAEMEIDRILFEITAGALGKAPSK
On to B1, for which the Kd in assay [2] came out at 1400 nM.

B2: MBP-CHMP2AΔC (residues 9-161) (domain or fragment, human, UniProt O43633 9-161, looked up)
chain: KTPEELLRQNQRALNRAMRELDRERQKLETQEKKIIADIKKMAKQGQMDAVRIMAKDLVRTRRYVRKFVLMRANIQAVSLKIQTLKSNNSMAQAMKGVTKAMGTMNRQLKLPQIQKIMMEFERQAEIMDMKEEMMNDAIDDAMGDEEDEEESD
modifications: biotin on lysines (biotin sulfo-LC-NHS, molar ratio 1:5) where it was immobilised; not biotinylated as analyte
For B2, the Kd in assay [3] was determined as 3200 nM.

B3: CHMP2AΔC (residues 9-161), MBP removed (domain or fragment, human, UniProt O43633 9-161, looked up)
chain: B2 chain
Regarding B3, the binding result in assay [4] was “binds”.

B4: CHMP3 full length (residues 1-222) (natural protein)
chain: T1 sequence (looked up)
In assay [5], B4 had a KD1 (at low concentrations) of 0.15 µM.

One may read the Kd as the free concentration of one partner at which half of the binding sites on the other are occupied at equilibrium, for simple one-to-one binding. Low values mean tighter binding, high ones weaker binding.
